In US11795460B2, “Compositions and methods for TTR gene editing and treating ATTR amyloidosis” (Intellia Therapeutics, Inc., priority 2017, dated 2023):
Strand notation (5' to 3'): a small letter for the sugar, then the base; units joined by * are phosphorothioate-linked, units joined directly phosphodiester-linked; [ ] holds rarer units or linkages, { } end groups; capitals alone tell only the bases. m = 2'-O-methyl; r = 2'-OH (RNA)

Assays:
TTR [1] = assay: TTR editing in primary cyno hepatocytes electroporated with Spy Cas9 protein and sgRNAs (Tables 14, 15); assay type: cell-based, cynomolgus monkey; details: Table 15; primary cyno hepatocytes electroporated with Spy Cas9 protein (RNP) and cyno specific sgRNAs
Description: (§1) Primary liver hepatocytes. Primary human liver hepatocytes (PHH) and primary cynomolgus liver hepatocytes (PCH) (Gibco) were cultured per the manufacturer's protocol (Invitrogen, protocol 11.28.2012). In brief, the cells were thawed and resuspended in hepatocyte thawing medium with supplements (Gibco, Cat. CM7000) followed by centrifugation at 100 g for 10 minutes for human and 80 g for 4 minutes for cyno. The supernatant was discarded and the pelleted cells resuspended in hepatocyte plating medium plus supplement pack (Invitrogen, Cat. A1217601 and CM3000). Cells were counted and plated on Bio-coat collagen I coated 96-well plates (ThermoFisher, Cat. 877272) at a density of 33,000 cells/well for human or 60,000 cells/well for cyno (or 65,000 cells/well when assaying effects on TTR protein, described further below). Plated cells were allowed to settle and adhere for 6 or 24 hours in a tissue culture incubator at 37° C. and 5% CO2 atmosphere. After incubation cells were checked for monolayer formation and media was replaced with hepatocyte culture medium with serum-free supplement pack (Invitrogen, Cat. A1217601 and CM4000).
[…] formation was performed prior to electroporation or transfection of Spy Cas9 protein loaded with guide RNAs (RNPs) onto cells. For dual guide (dgRNAs), individual crRNA and trRNA was pre-annealed by mixing equivalent amounts of reagent and incubating at 95° C. for 2 min and cooling to room temperature. Single guide (sgRNAs) were boiled at 95° C. for 2 min and cooling to room temperature. The boiled dgRNA or sgRNA was incubated with Spy Cas9 protein in Optimem for 10 minutes at room temperature to form a ribonucleoprotein (RNP) complex.
For RNP electroporation into primary human and cyno hepatocytes, the cells are thawed and resuspended in Lonza electroporation Primary Cell P3 buffer at a concentration of 2500 cells per μL for human hepatocytes and 3500 cells per μL for cyno hepatocytes. A volume of 20 μL of resuspended cells and 5 μL of RNP are mixed together per guide. 20 μL of the mixture is placed into a Lonza electroporation plate. The cells were electroporated using the Lonza nucleofector with the preset protocol EX-147. Post electroporation, the cells are transferred into a Biocoat plate containing pre-warmed maintenance media and placed in a tissue culture incubator at 37° C. and 5% CO2.
Transfected cells were harvested post-transfection at 24, 48, or 72 hours. The genomic DNA was extracted from each well of a 96-well plate using 50 μL/well BuccalAmp DNA Extraction solution (Epicentre, Cat. QE09050) per manufacturer's protocol. All DNA samples were subjected to PCR and subsequent NGS analyses, as described herein.
(§2) To quantitatively determine the efficiency of editing at the target location in the genome, sequencing was utilized to identify the presence of insertions and deletions introduced by gene editing.
(§3) Primers were designed around the target site within the gene of interest (e.g. TTR), and the genomic area of interest was amplified.
(§4) Additional PCR was performed per the manufacturer's protocols (Illumina) to add chemistry for sequencing. The amplicons were sequenced on an Illumina MiSeq instrument. The reads were aligned to a reference genome (e.g., the human reference genome (hg38), the cynomologus reference genome (mf5), the rat reference genome (rn6), or the mouse reference genome (mm10)) after eliminating those having low quality scores. The resulting files containing the reads were mapped to the reference genome (BAM files), where reads that overlapped the target region of interest were selected and the number of wild type reads versus the number of reads which contain an insertion, substitution, or deletion was calculated.
The editing percentage (e.g., the “editing efficiency” or “percent editing” or “indel frequency”) is defined as the total number of sequence reads with insertions/deletions (“indels”) or substitutions over the total number of sequence reads, including wild type. […]

TTR [2] = assay: EC50 and maximum editing in primary cyno hepatocytes treated with LNP formulated U-depleted Spy Cas9 mRNA and sgRNAs (Tables 20, 22); assay type: cell-based, cynomolgus monkey; set-up: key: % of sequence reads with indels or substitutions over total reads; details: Table 22, LNP with U-depleted Spy Cas9 mRNA and cyno specific sgRNAs, dose response
Description: as §1
(§5) For LNPs prepared using the cross-flow technique, the LNPs were formed by impinging jet mixing of the lipid in ethanol with two volumes of RNA solutions and one volume of water. The lipid in ethanol is mixed through a mixing cross with the two volumes of RNA solution. A fourth stream of water is mixed with the outlet stream of the cross through an inline tee. (See WO2016010840 FIG. 2.) The LNPs were held for 1 hour at room temperature, and further diluted with water (approximately 1:1 v/v). Diluted LNPs were concentrated using tangential flow filtration on a flat sheet cartridge (Sartorius, 100 kD MWCO) and then buffer exchanged by diafiltration into 50 mM Tris, 45 mM NaCl, 5% (w/v) sucrose, pH 7.5 (TSS). Alternatively, the final buffer exchange into TSS was completed with PD-10 desalting columns (GE). If required, formulations were concentrated by centrifugation with Amicon 100 kDa centrifugal filters (Millipore). The resulting mixture was then filtered using a 0.2 μm sterile filter. The final LNP was stored at 4° C. or −80° C. until further use.
as §2, §3, §4
(§6) The editing percentage (e.g., the “editing efficiency” or “percent editing” or “indel frequency”) is defined as the total number of sequence reads with insertions/deletions (“indels”) or substitutions over the total number of sequence reads, including wild type.
(§7) Lipid nanoparticle formulations of modified sgRNAs targeting human TTR and the cyno matched sgRNA sequences were tested on primary human hepatocytes and primary cyno hepatocytes in a dose response curve. Primary human and cyno hepatocytes were plated as described in Example 1. Both cell lines were incubated at 37° C., 5% CO2 for 24 hours prior to treatment with LNPs. […]

TTR [3] = assay: EC50 and maximum editing in primary human hepatocytes treated with LNP formulated U-depleted Spy Cas9 mRNA and sgRNAs (Tables 19, 21); assay type: cell-based; set-up: key: % of sequence reads with indels or substitutions over total reads; details: Table 21, LNP with U-depleted Spy Cas9 mRNA and cyno specific sgRNAs, dose response
Description: as §1, §5, §2, §3, §4, §6, §7

TTR [4] = assay: TTR editing in primary cyno hepatocytes treated with LNP formulated Spy Cas9 mRNA (SEQ ID NO: 2) and sgRNAs (Tables 17, 18); assay type: cell-based, cynomolgus monkey; details: LNP formulated Spy Cas9 mRNA (SEQ ID NO: 2) and cyno matched sgRNAs, 72 hours post treatment
Description: as §1
In general, the lipid nanoparticle components were dissolved in 100% ethanol with the lipid component of various molar ratios. The RNA cargos were dissolved in 25 mM citrate, 100 mM NaCl, pH 5.0, resulting in a concentration of RNA cargo of approximately 0.45 mg/mL. The LNPs were formulated with a lipid amine to RNA phosphate (N:P) molar ratio of about 4.5 or about 6, with the ratio of mRNA to gRNA at 1:1 by weight.
The LNPs were formed by microfluidic mixing of the lipid and RNA solutions using a Precision Nanosystems NanoAssemblr™ Benchtop Instrument, according to the manufacturer's protocol. A 2:1 ratio of aqueous to organic solvent was maintained during mixing using differential flow rates. After mixing, the LNPs were collected, diluted in water (approximately 1:1 v/v), held for 1 hour at room temperature, and further diluted with water (approximately 1:1 v/v) before final buffer exchange. The final buffer exchange into 50 mM Tris, 45 mM NaCl, 5% (w/v) sucrose, pH 7.5 (TSS) was completed with PD-10 desalting columns (GE). If required, formulations were concentrated by centrifugation with Amicon 100 kDa centrifugal filters (Millipore). The resulting mixture was then filtered using a 0.2 μm sterile filter. The final LNP was stored at −80° C. until further use.
as §2, §3, §4, §6
Lipid nanoparticle formulations of modified sgRNAs targeting human TTR and the cyno matched sgRNA sequences were tested on primary human hepatocytes and primary cyno hepatocytes in a dose response curve. Primary human and cyno hepatocytes were plated as described in Example 1. […]

| Molecule | Avg % Deletion (TTR [1]) [%] | Avg % Edit (TTR [1]) [%] | Avg % Insert (TTR [1]) [%] | Max Editing (TTR [2]) | Max Editing (TTR [3]) | 12.5 ng mRNA, 3.9 nM sgRNA % Edit (TTR [4]) [%] |
| --- | --- | --- | --- | --- | --- | --- |
| G000511: TTR Cyno specific sgRNA modified sequence, SEQ ID No. 123; guide sequence of CR005371 (nucleic acid) guide: mA*mA*mG*rUrGrArCrUrUrCrCrArGrUrArArGrArUrUrGrUrUrUrUrArGrAmGmCmUmAmGmAmAmAmUmAmGmCrArArGrUrUrArArArArUrArArGrGrCrUrArGrUrCrCrGrUrUrArUrCrAmAmCmUmUmGmAmAmAmAmAmGmUmGmGmCmAmCmCmGmAmGmUmCmGmGmUmGmCmU*mU*mU*mU | 2.00 | 62.77 | 60.87 | – | – | – |
| G000508: TTR Cyno specific sgRNA modified sequence, SEQ ID No. 120; guide sequence of CR005368 (nucleic acid) guide: mC*mC*mU*rCrCrUrCrUrGrCrCrUrCrGrCrUrGrGrArCrGrUrUrUrUrArGrAmGmCmUmAmGmAmAmAmUmAmGmCrArArGrUrUrArArArArUrArArGrGrCrUrArGrUrCrCrGrUrUrArUrCrAmAmCmUmUmGmAmAmAmAmAmGmUmGmGmCmAmCmCmGmAmGmUmCmGmGmUmGmCmU*mU*mU*mU | 4.17 | 45.63 | 41.57 | – | – | – |
| G000504: TTR Cyno specific sgRNA modified sequence, SEQ ID No. 116; guide sequence of CR005364 (nucleic acid) guide: mA*mA*mA*rGrGrCrUrGrCrUrGrArUrGrArGrArCrCrUrGrUrUrUrUrArGrAmGmCmUmAmGmAmAmAmUmAmGmCrArArGrUrUrArArArArUrArArGrGrCrUrArGrUrCrCrGrUrUrArUrCrAmAmCmUmUmGmAmAmAmAmAmGmUmGmGmCmAmCmCmGmAmGmUmCmGmGmUmGmCmU*mU*mU*mU | 7.53 | 77.17 | 69.73 | 98.04 | 7.16 | – |
| G000509: TTR Cyno specific sgRNA modified sequence, SEQ ID No. 121; guide sequence of CR005369 (nucleic acid) guide: mA*mA*mA*rGrUrUrCrUrArGrArUrGrCrCrGrUrCrCrGrGrUrUrUrUrArGrAmGmCmUmAmGmAmAmAmUmAmGmCrArArGrUrUrArArArArUrArArGrGrCrUrArGrUrCrCrGrUrUrArUrCrAmAmCmUmUmGmAmAmAmAmAmGmUmGmGmCmAmCmCmGmAmGmUmCmGmGmUmGmCmU*mU*mU*mU | 49.73 | 93.03 | 43.60 | – | – | 74.47 |
| G000510: TTR Cyno specific sgRNA modified sequence, SEQ ID No. 122; guide sequence of CR005370 (nucleic acid) guide: mA*mC*mU*rUrGrUrCrUrUrCrUrCrUrArUrArCrCrCrArGrUrUrUrUrArGrAmGmCmUmAmGmAmAmAmUmAmGmCrArArGrUrUrArArArArUrArArGrGrCrUrArGrUrCrCrGrUrUrArUrCrAmAmCmUmUmGmAmAmAmAmAmGmUmGmGmCmAmCmCmGmAmGmUmCmGmGmUmGmCmU*mU*mU*mU | 1.77 | 90.80 | 89.13 | – | – | 61.87 |
| G000503: TTR Cyno specific sgRNA modified sequence, SEQ ID No. 115; guide sequence of CR005372 (nucleic acid) guide: mA*mA*mA*rArGrGrCrUrGrCrUrGrArUrGrArGrArCrCrGrUrUrUrUrArGrAmGmCmUmAmGmAmAmAmUmAmGmCrArArGrUrUrArArArArUrArArGrGrCrUrArGrUrCrCrGrUrUrArUrCrAmAmCmUmUmGmAmAmAmAmAmGmUmGmGmCmAmCmCmGmAmGmUmCmGmGmUmGmCmU*mU*mU*mU | 6.50 | 58.53 | 52.07 | 83.41 | – | – |
| G000505: TTR Cyno specific sgRNA modified sequence, SEQ ID No. 117; guide sequence of CR005365 (nucleic acid) guide: mC*mA*mU*rUrGrArCrArGrCrArGrGrArCrUrGrCrCrUrGrUrUrUrUrArGrAmGmCmUmAmGmAmAmAmUmAmGmCrArArGrUrUrArArArArUrArArGrGrCrUrArGrUrCrCrGrUrUrArUrCrAmAmCmUmUmGmAmAmAmAmAmGmUmGmGmCmAmCmCmGmAmGmUmCmGmGmUmGmCmU*mU*mU*mU | 0.10 | 95.53 | 95.50 | 99.97 | 13.48 | – |
| G000506: TTR Cyno specific sgRNA modified sequence, SEQ ID No. 118; guide sequence of CR005366 (nucleic acid) guide: mA*mU*mA*rCrCrArGrUrCrCrArGrCrGrArGrGrCrArGrGrUrUrUrUrArGrAmGmCmUmAmGmAmAmAmUmAmGmCrArArGrUrUrArArArArUrArArGrGrCrUrArGrUrCrCrGrUrUrArUrCrAmAmCmUmUmGmAmAmAmAmAmGmUmGmGmCmAmCmCmGmAmGmUmCmGmGmUmGmCmU*mU*mU*mU | 3.07 | 89.43 | 86.90 | 99.18 | 89.49 | 60.13 |
